# T1: His6-MM_0565 (CARF-wHTH protein) (Methanosarcina mazei Gö1) (UniProt Q8PZC9)
# T1 sequence: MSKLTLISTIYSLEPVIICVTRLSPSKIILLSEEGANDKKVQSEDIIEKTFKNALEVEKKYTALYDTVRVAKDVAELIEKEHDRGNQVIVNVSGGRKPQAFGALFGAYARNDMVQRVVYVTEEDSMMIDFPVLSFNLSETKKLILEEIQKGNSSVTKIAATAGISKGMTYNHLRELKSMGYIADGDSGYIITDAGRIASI
# T2: His6-MM_0565 (CARF-wHTH protein) (Methanosarcina mazei Gö1, UniProt Q8PZC9 1-200)
# T2 sequence: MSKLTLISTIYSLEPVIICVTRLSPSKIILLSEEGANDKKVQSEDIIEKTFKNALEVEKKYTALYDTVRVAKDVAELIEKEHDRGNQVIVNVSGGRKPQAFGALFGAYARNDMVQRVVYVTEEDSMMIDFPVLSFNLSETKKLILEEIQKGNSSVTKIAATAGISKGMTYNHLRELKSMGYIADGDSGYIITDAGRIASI
# How the values were obtained:
# [1] = target: T1, His6-MM_0565 (CARF-wHTH protein) (Methanosarcina mazei Gö1); experiment: competition; conditions: MST: 25 nM labelled protein in His-tag buffer (250 mM NaH2PO4, 1.5 M NaCl, pH 8) + 1 mg/mL BSA, 0.05% Tween20, DNA from annealing buffer (50 mM TES/KOH pH 7.6 …)
# [2] = target: T1, His6-MM_0565 (CARF-wHTH protein) (Methanosarcina mazei Gö1); experiment: EMSA; conditions: MST: 25 nM labelled protein in His-tag buffer (250 mM NaH2PO4, 1.5 M NaCl, pH 8) + 1 mg/mL BSA, 0.05% Tween20, DNA from annealing buffer (50 mM TES/KOH pH 7.6 …)
# [3] = target: T2, His6-MM_0565 (CARF-wHTH protein); experiment: MST; MST: 25 nM labelled protein in His-tag buffer (250 mM NaH2PO4, 1.5 M NaCl, pH 8) + 1 mg/mL BSA, 0.05% Tween20, DNA from annealing buffer (50 mM TES/KOH pH 7.6); conditions: protein: recombinant, tags: N-terminal His6 (pET28a), chain copies: 2
# [4] = target: the molecule itself; experiment: SEC; purified His6-MM_0565 on an ENrich SEC 650 column; 50 mM TES buffer pH 7.6, 300 mM KCl; 0.5 mL/min; calibrated with a gel-filtration mass standard
# [5] = target: the molecule itself; experiment: SDS-PAGE and Western blot of cell extracts (dimer band kept under denaturing conditions); M. mazei cell extracts (750 µg), cells grown under standard conditions (38.5 mM NaCl) or with 500 mM NaCl; samples boiled 5 min at 95 °C, 12% SDS-PAGE; polyclonal antibodies against MM_0565
molecule,measurement,setting,value
AGGGCAAAAATTTCCGTTATTTGGCCAGAAAAGGCCTGAAATGAGCCCTTTTTCAGGGCTAAAATTCTTGCTGGAAAATTATCAAACCCTTTATAAATACAAGAAAAACTTCTCATACGCAGATATTCCGGTAACAGCAATCTACGCATTTTCT (double strand) [leader I-B PCR fragment],binding,[1],binds
same,binding,[2],binds
AGGGCAAAAATTTCCGTTATTTGGTCAGAAAAGGCCTGAAATGAGCCCTTTTTTGGGGCTAAAATTCTTGCTGGAAAATTATCAAACCCTTTATAAATACAAGAAAAAAAGGGTTTTTTTAGTGGTTTGGAAAC (double strand) [leader III-C PCR fragment],binding,[2],binds
MM_0565 promoter version 1 (wt) (dsDNA) DNA 1: AACTAAATCCCTATATCGTAAAACATTTAACCAAACCCTACAATACATGACATCTAATGT DNA 2: ACATTAGATGTCATGTATTGTAGGGTTTGGTTAAATGTTTTACGATATAGGGATTTAGTT,Kd,[3]; blunt,285 ± 56 nM
MM_3250 (cas1-solo operon) promoter (dsDNA) DNA 1: CCGCTCTTACTTATGTACAGAATTGAGTATAACTTTAAGTATAAGTTTGATGTATATTTTGTATATAATT DNA 2: AATTATATACAAAATATACATCAAACTTATACTTAAAGTTATACTCAATTCTGTACATAAGTAAGAGCGG,Kd,[3]; blunt,1600 ± 400 nM
conserved leader region 2 (3' fragment) (dsDNA) DNA 1: CAAGAATTTTAGCCCTGAAAAAGGGCTCATTTCAGGCCTTTTCTGGCCAAATAACGGAAATTTTTGCCCT DNA 2: AGGGCAAAAATTTCCGTTATTTGGCCAGAAAAGGCCTGAAATGAGCCCTTTTTCAGGGCTAAAATTCTTG,binding result,[3],no binding
"conserved leader region 1 (5' fragment, 70 nt) (dsDNA) DNA 1: TTTTTCTTGTATTTATAAAGGGTTTGATAATTTTCCAGCAAGAATTTTAGCCCCAAAAAAGGGCTCATTT DNA 2: AAATGAGCCCTTTTTTGGGGCTAAAATTCTTGCTGGAAAATTATCAAACCCTTTATAAATACAAGAAAAA",Kd,[3]; blunt,960 ± 350 nM
"His6-MM_0565 (CARF protein MM_0565 of Methanosarcina mazei Gö1 with N-terminal His6 tag) (natural protein, UniProt Q8PZC9 1-200, looked up, MM_0565 gene product of Methanosarcina mazei Gö1; N-terminal CARF domain and C-terminal winged helix-turn-helix domain; gene PCR-amplified (0.6 kbp fragment) and cloned into pET28a(+); approximately 22 kDa; Homodimer by size-exclusion chromatography; also called purified MM_0565; His6-tagged MM_0565; source: E. coli BL21-CodonPlus-RIL (plasmid pRS923, pET28a), purified (Ni-NTA agarose); not …) MSKLTLISTIYSLEPVIICVTRLSPSKIILLSEEGANDKKVQSEDIIEKTFKNALEVEKKYTALYDTVRVAKDVAELIEKEHDRGNQVIVNVSGGRKPQAFGALFGAYARNDMVQRVVYVTEEDSMMIDFPVLSFNLSETKKLILEEIQKGNSSVTKIAATAGISKGMTYNHLRELKSMGYIADGDSGYIITDAGRIASI",stoichiometry N,[4],2
"MM_0565, endogenous in Methanosarcina mazei Gö1 (natural protein, UniProt Q8PZC9 1-200, looked up, MM_0565 gene product of Methanosarcina mazei Gö1, detected in cell extracts with polyclonal antibodies against MM_0565 as bands of 25 and 50 kDa; Both a monomer band and a dimer band were seen on the denaturing gel; also called dimeric MM_0565; source: endogenous, M. mazei Gö1 cell extracts) MSKLTLISTIYSLEPVIICVTRLSPSKIILLSEEGANDKKVQSEDIIEKTFKNALEVEKKYTALYDTVRVAKDVAELIEKEHDRGNQVIVNVSGGRKPQAFGALFGAYARNDMVQRVVYVTEEDSMMIDFPVLSFNLSETKKLILEEIQKGNSSVTKIAATAGISKGMTYNHLRELKSMGYIADGDSGYIITDAGRIASI",stoichiometry N,[5],2
cas8b promoter (CRISPR-Cas I-B operon) (dsDNA) DNA 1: TCTATTTGCTTATTTTTATAATTATTTTTAGAAATGTATATATAATATGTTAACTATGAACCTTGATGGT DNA 2: ACCATCAAGGTTCATAGTTAACATATTATATATACATTTCTAAAAATAATTATAAAAATAAGCAAATAGA,binding result,[3]; blunt,no binding

# Source: article PMC7465815, “The CARF Protein MM_0565 Affects Transcription of the Casposon-Encoded cas1-solo Gene in Methanosarcina mazei Gö1” (Biomolecules, 2020)
